In US20190315837A1 one finds Kd, koff and kon data, which are given here for one substance.

The assay concerns the target His-tagged human Her2/Neu protein (Her2-His) (human) (UniProt P04626). The assay is described as follows: Octet (BLI), Her2-His on penta-His biosensor, antibody in solution. Background: In BLI a coated tip is dipped into the sample, and binding shifts an interference pattern.

A value given as a limit tells only on which side of the number the result lay.

As to human IgG1 control (antibody), the Kd (commonly the free concentration of one partner at which half of the binding sites on the other are occupied at equilibrium, for simple one-to-one binding) is under 1 pM; the koff – broadly, a measure of how fast the partners let go of each other – is under 1e-07 s⁻¹; the kon (in general, a measure of how fast the partners come together) worked out at 1.04e+06 M⁻¹ s⁻¹.
